Square brackets hold non-standard residues; d marks the D form. Ends that are not written are not given here. dChg = N[C@@H](C(=O)O)C1CCCCC1; Chg = N[C@H](C(=O)O)C1CCCCC1; Orn = NCCC[C@H](N)C(=O)O; Dap = NC[C@H](N)C(=O)O; Sar = CNCC(=O)O
Experiments:
[1] = biological target: T1, vasopressin-1 receptor (Rattus norvegicus, UniProt P30560); assay: 3H-vasopressin-1 antagonist binding inhibition, rat liver cell membranes; details: Re-complexed
T1 construct: cell membranes prepared from rat liver; from tissue; host or cells: rat liver membranes
Protocol: The screening of compounds for vasopressin-1 receptor was performed using cell membranes prepared from rat liver. The assay was essentially performed as described above for the oxytocin receptor assay. In this assay 2-4 nM ^3H-vasopressin-1 antagonist (obtained from Perkin Elemer-NEN Life Sciences) was used as the radiotracer and Arg^8-vasopressin (1 μM final concentration in the assay) was used to determine non-specific binding. The assay was performed in triplicates. Activity profile for the test compounds were generated by their ability to inhibit specific binding of the radiotracer to its receptor.

[2] = biological target: T2, oxytocin receptor (Rattus norvegicus, UniProt P70536); assay: 3H-oxytocin binding inhibition, rat uterus cell membranes; details: for % Inhibition at 1 μM Oxytocin Receptor (Table 30) / % Inhibition at 1 μM Oxytocin Receptor (Table 29): rat uterus membranes, Re-complexed; for activity at oxytocin receptor: within the Table 30 series
T2 construct: cell membranes prepared from rat uterus; from tissue; host or cells: rat uterus membranes
T2 sequence (P70536 1-388): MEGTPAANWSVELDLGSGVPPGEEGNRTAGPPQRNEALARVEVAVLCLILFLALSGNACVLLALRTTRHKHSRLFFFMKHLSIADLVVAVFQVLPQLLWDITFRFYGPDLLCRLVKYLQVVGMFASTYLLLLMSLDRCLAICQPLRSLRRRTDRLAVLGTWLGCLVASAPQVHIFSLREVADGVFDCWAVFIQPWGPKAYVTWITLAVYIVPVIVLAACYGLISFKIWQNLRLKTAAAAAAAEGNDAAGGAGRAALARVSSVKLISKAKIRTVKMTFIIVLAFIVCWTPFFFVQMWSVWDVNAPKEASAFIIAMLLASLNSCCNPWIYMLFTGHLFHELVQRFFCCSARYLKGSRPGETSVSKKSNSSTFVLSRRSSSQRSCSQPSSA
Protocol: The screening of metallopeptides for binding to oxytocin receptor was done using cell membranes prepared from rat uterus. […] The membrane preparations (10-50 μg/well) were incubated with […] ^3H-oxytocin in HEPES Buffer containing 0.2% bovine serum albumin along with a test compound (1 μM final assay concentration) for 2 hours at 4° C. Non-specific binding was determined by addition of 10^−6 M oxytocin instead of the test compound. After incubation, the membranes were filtered and washed three times with ice-cold PBS. The membranes were air-dried and punched directly into scintillation vials. After addition of the scintillation cocktail, the vials were capped and gently shaken for 12 hours to dissolve the radioactivity contained in the filters. The vials were then read for tritium counts in a scintillation counter. Specific binding was determined as the radioactivity in wells containing ^3H-oxytocin alone minus the radioactivity in wells containing 10^−6 M oxytocin. The assay was performed in triplicates. The activity profile for the test compounds were generated by their ability to inhibit specific binding of the radiotracer to its receptor.

[3] = biological target: T3, angiotensin-II receptor (Homo sapiens, UniProt P30556); assay: 125I-Tyr4,Sar1,Ile8-Angiotensin II binding inhibition, human neuroblastoma (KAN-TS) cell membranes; details: for % Inhibition at 1 μM (Angiotensin Receptor): KAN-TS cell membranes, Re-complexed
T3 construct: cell membranes obtained from human neuroblastoma cells (KAN-TS); endogenous in cells; host or cells: KAN-TS human neuroblastoma cells (membranes)
T3 sequence (P30556 1-359): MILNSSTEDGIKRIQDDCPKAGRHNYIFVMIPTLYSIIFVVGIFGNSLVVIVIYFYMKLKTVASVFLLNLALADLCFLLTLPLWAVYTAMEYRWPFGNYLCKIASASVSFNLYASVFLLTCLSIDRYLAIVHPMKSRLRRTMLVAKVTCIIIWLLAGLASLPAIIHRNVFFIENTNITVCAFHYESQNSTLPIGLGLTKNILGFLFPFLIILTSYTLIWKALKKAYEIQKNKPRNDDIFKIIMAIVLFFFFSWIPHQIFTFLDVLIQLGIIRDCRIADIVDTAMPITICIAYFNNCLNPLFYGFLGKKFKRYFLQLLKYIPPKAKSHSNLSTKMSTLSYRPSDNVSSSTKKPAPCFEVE
Protocol: The screening of compounds for binding to the angiotensin-II receptor was performed using cell membranes obtained from human neuroblastoma cells (KAN-TS). The assay was performed in triplicates, generally as described in Example 4 for oxytocin, except for measurement of receptor bound radioactivity. For angiotensin, a radioiodinated tracer ligand was used (instead of a tritiated ligand), which radioiodinated tracer facilitated direct measurement of bound radioactivity using a gamma counter. A final 1-3 nM concentration of ^125I-Tyr^4, Sar^1, Ile^8-Angiotensin II ligand (obtained from Perkin Elemer-NEN Life Sciences) was used as radiotracer and angiotensin-II (1 μM final assay concentration) was used to measure non-specific binding. After filtration of the incubation medium, followed by washings, drying the filters and punching the filters into test tubes, the filters were counted for radioactivity in a gamma counter. An activity profile for the test compounds was generated by ability to inhibit specific binding of the radiotracer to its receptor.

T1 sequence (P30560 whole entry): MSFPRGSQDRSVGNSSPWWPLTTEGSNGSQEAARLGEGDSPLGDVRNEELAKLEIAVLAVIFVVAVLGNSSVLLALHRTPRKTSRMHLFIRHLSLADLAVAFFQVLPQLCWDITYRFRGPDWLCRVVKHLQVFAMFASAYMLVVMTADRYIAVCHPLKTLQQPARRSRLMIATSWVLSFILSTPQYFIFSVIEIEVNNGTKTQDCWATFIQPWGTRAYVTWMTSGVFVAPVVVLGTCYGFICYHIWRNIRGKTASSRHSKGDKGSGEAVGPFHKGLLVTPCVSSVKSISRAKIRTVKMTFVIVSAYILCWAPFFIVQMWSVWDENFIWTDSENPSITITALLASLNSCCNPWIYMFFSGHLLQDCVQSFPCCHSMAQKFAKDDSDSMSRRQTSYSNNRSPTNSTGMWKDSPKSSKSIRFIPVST

| Substance | % Inhibition at 1 μM Vasopressin-1 Receptor (Table 30) [1] [%] | % Inhibition at 1 μM Oxytocin Receptor (Table 29) [2] [%] | further results |
| --- | --- | --- | --- |
| Ala-Tyr-Cys-Ile-Gln-Asn-Ala-Pro-Leu-Gly-NH2 (AYCIQNAPLG-NH2; not fully specified (bridges); printed as Ala-Tyr-Cys-Ile-Gln-Asn-Ala-Pro-Leu-Gly-NH2; also: oxorhenium(V) N3S1 metal chelate (Re=O)) [SEQ ID NO:158] | 1 |  | % Inhibition at 1 μM Oxytocin Receptor (Table 30) [2]: 6% |
| Ala-Tyr-Ile-Cys-Gln-Asn-Ala-Pro-Leu-Gly-NH2 (AYICQNAPLG-NH2; not fully specified (bridges); printed as Ala-Tyr-Ile-Cys-Gln-Asn-Ala-Pro-Leu-Gly-NH2; also: oxorhenium(V) N3S1 metal chelate (Re=O)) [SEQ ID NO:157] | 0 |  | % Inhibition at 1 μM Oxytocin Receptor (Table 30) [2]: 0% |
| Ala-Tyr-Ile-Gln-Asn-Ala-Ala-Cys-Leu-Gly-NH2 (AYIQNAACLG-NH2; not fully specified (bridges); printed as Ala-Tyr-Ile-Gln-Asn-Ala-Ala-Cys-Leu-Gly-NH2; also: oxorhenium(V) N3S1 metal chelate (Re=O)) [SEQ ID NO:152] | 1 |  | % Inhibition at 1 μM Oxytocin Receptor (Table 30) [2]: 0% |
| Ala-Tyr-Ile-Gln-Asn-Ala-Ala-Leu-Cys-Gly-NH2 (AYIQNAALCG-NH2; not fully specified (bridges); printed as Ala-Tyr-Ile-Gln-Asn-Ala-Ala-Leu-Cys-Gly-NH2; also: oxorhenium(V) N3S1 metal chelate (Re=O)) [SEQ ID NO:151] | 0 |  | % Inhibition at 1 μM Oxytocin Receptor (Table 30) [2]: 0% |
| Ala-Tyr-Ile-Gln-Asn-Ala-Ala-Leu-Gly-Cys-NH2 (AYIQNAALGC-NH2; not fully specified (bridges); printed as Ala-Tyr-Ile-Gln-Asn-Ala-Ala-Leu-Gly-Cys-NH2; also: oxorhenium(V) N3S1 metal chelate (Re=O)) [SEQ ID NO:150] | 0 |  | % Inhibition at 1 μM Oxytocin Receptor (Table 30) [2]: 0% |
| Ala-Tyr-Ile-Gln-Asn-Ala-Cys-Ala-Leu-Gly-NH2 (AYIQNACALG-NH2; not fully specified (bridges); printed as Ala-Tyr-Ile-Gln-Asn-Ala-Cys-Ala-Leu-Gly-NH2; also: oxorhenium(V) N3S1 metal chelate (Re=O)) [SEQ ID NO:154] | 0 |  | activity at oxytocin receptor [2]: also active |
| Ala-Tyr-Ile-Gln-Asn-Ala-Cys-Pro-Leu-Gly-NH2 (AYIQNACPLG-NH2; not fully specified (bridges); printed as Ala-Tyr-Ile-Gln-Asn-Ala-Cys-Pro-Leu-Gly-NH2; also: oxorhenium(V) N3S1 metal chelate (Re=O)) [SEQ ID NO:153] | 0 |  | % Inhibition at 1 μM Oxytocin Receptor (Table 30) [2]: 2% |
| Ala-Tyr-Ile-Gln-Asn-Ala-Pro-Leu-Gly-Cys-NH2 (AYIQNAPLGC-NH2; not fully specified (bridges); printed as Ala-Tyr-Ile-Gln-Asn-Ala-Pro-Leu-Gly-Cys-NH2; also: oxorhenium(V) N3S1 metal chelate (Re=O)) [SEQ ID NO:149] | 0 |  | % Inhibition at 1 μM Oxytocin Receptor (Table 30) [2]: 6% |
| Ala-Tyr-Ile-Gln-Asn-Cys-Ala-Pro-Leu-Gly-NH2 (AYIQNCAPLG-NH2; not fully specified (bridges); printed as Ala-Tyr-Ile-Gln-Asn-Cys-Ala-Pro-Leu-Gly-NH2; also: oxorhenium(V) N3S1 metal chelate (Re=O)) [SEQ ID NO:155] | 0 |  | activity at oxytocin receptor [2]: maximal activity |
| Ala-Tyr-Ile-Gln-Cys-Asn-Ala-Pro-Leu-Gly-NH2 (AYIQCNAPLG-NH2; not fully specified (bridges); printed as Ala-Tyr-Ile-Gln-Cys-Asn-Ala-Pro-Leu-Gly-NH2; also: oxorhenium(V) N3S1 metal chelate (Re=O)) [SEQ ID NO:156] | 0 |  | activity at oxytocin receptor [2]: also active |
| Caca-D-Trp-Ile-Cys-Thr-Dap-Ala-Pro-Orn-NH2 |  | 0 |  |
| Caca-D-Trp-Ile-Thr-Cys-Dap-Ala-Pro-Orn-NH2 |  | 0 | % Inhibition at 1 μM Vasopressin-1 Receptor (Table 29) [1]: 0% |
| Caca-D-Trp-Ile-Thr-Dap-Ala-Ala-Cys-Orn-NH2 |  | 0 | % Inhibition at 1 μM Vasopressin-1 Receptor (Table 29) [1]: 0% |
| Caca-D-Trp-Ile-Thr-Dap-Ala-Ala-Orn-Cys-NH2 |  | 0 |  |
| Caca-D-Trp-Ile-Thr-Dap-Ala-Cys-Ala-Orn-NH2 |  | 0 | % Inhibition at 1 μM Vasopressin-1 Receptor (Table 29) [1]: 0% |
| Caca-D-Trp-Ile-Thr-Dap-Ala-Cys-Pro-Orn-NH2 |  | 0 | % Inhibition at 1 μM Vasopressin-1 Receptor (Table 29) [1]: 0% |
| Caca-D-Trp-Ile-Thr-Dap-Cys-Ala-Pro-Orn-NH2 |  | 9 |  |
| Pmp-D-Trp-Cys-Ile-Thr-Dap-Ala-Pro-Orn-NH2 |  | 0 |  |
| Sar-Arg-Cys-Val-Tyr-Ile-His-Pro-Thr ([Sar]RCVYIHPT; not fully specified (bridges); printed as Sar-Arg-Cys-Val-Tyr-Ile-His-Pro-Thr; also: oxorhenium(V) N3S1 metal chelate (Re=O)) [SEQ ID NO:165] |  |  | % Inhibition at 1 μM (Angiotensin Receptor) [3]: 1% |
| Sar-Arg-Val-Cys-Tyr-Ile-His-Pro-Thr ([Sar]RVCYIHPT; not fully specified (bridges); printed as Sar-Arg-Val-Cys-Tyr-Ile-His-Pro-Thr; also: oxorhenium(V) N3S1 metal chelate (Re=O)) [SEQ ID NO:164] |  |  | % Inhibition at 1 μM (Angiotensin Receptor) [3]: 1% |
| Sar-Arg-Val-Tyr-Ile-His-Cys-Gly-Thr ([Sar]RVYIHCGT; not fully specified (bridges); printed as Sar-Arg-Val-Tyr-Ile-His-Cys-Gly-Thr; also: oxorhenium(V) N3S1 metal chelate (Re=O)) [SEQ ID NO:166] |  |  | percent inhibition at angiotensin receptor compared ([3]; Gly for Pro substitution): significantly less than in SEQ ID NO:161 |
| Sar-Arg-Val-Tyr-Ile-His-Gly-Cys-Thr ([Sar]RVYIHGCT; not fully specified (bridges); printed as Sar-Arg-Val-Tyr-Ile-His-Gly-Cys-Thr; also: oxorhenium(V) N3S1 metal chelate (Re=O)) [SEQ ID NO:160] |  |  | % Inhibition at 1 μM (Angiotensin Receptor) [3]: 5% |
| [Chg][dW]CIT[Dap]AP[Orn]-NH2 |  | 0 | % Inhibition at 1 μM Vasopressin-1 Receptor (Table 29) [1]: 0% |
| [dChg][dW]CIT[Dap]AP[Orn]-NH2 |  | 0 | % Inhibition at 1 μM Vasopressin-1 Receptor (Table 29) [1]: 8% |
